Target: T1, human CCR5 chemokine receptor (Homo sapiens, UniProt P51681)
T1 construct: host or cells: Chinese Hamster Ovary (CHO) cells; membranes prepared from the cell pellet
Assay: CC-Chemokine Receptor-5 Binding by Scintillation Proximity Assay (CCR5 SPA), displacement of 125I-MIP1α
Settings: standard compound, 14-point concentration-response curve in triplicate, starting concentration 1 μM
Procedure: CC-Chemokine Receptor-5 Binding by Scintillation Proximity Assay (CCR5 SPA)
Scintillation Proximity Assay for the Human CC-Chemokine Receptor, CCR-5
This protocol describes a high-throughput screen using SPA binding to identify compounds that inhibit binding of ^125I-MIP1α to the human CCR5 chemokine receptor.
Human CCR5 receptors were expressed in Chinese Hamster Ovary (CHO) cells, registration # 12025. Cells were grown in suspension and a 50 to 80 ml CCR5 cell pellet was prepared. […]
The saturation curve binding experiment is performed by adding varying amounts of [^125I]MIP1α (0-8.5 nM to membranes and beads in concentrations chosen from the optimal protein/bead ratio. The data is analyzed using a non-linear curve-fitting program. The Kd and Bmax are derived from the curve. […]

T1 sequence (P51681 whole entry): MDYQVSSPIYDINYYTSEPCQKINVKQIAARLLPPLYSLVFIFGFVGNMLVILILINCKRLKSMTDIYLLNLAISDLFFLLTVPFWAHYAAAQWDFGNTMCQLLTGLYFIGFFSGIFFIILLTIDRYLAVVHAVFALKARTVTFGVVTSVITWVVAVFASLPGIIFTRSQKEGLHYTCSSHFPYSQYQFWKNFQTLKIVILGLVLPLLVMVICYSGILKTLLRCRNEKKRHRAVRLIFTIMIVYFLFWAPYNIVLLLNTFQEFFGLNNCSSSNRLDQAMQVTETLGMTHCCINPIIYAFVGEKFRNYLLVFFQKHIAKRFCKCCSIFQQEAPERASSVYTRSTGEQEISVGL

MIP1α: natural chemokine ligand of CCR5, used as standard compound in the SPA binding assay
average historical pKi: 7.6
